Results published in US20200147120A1 (NATIONAL UNIVERSITY CORPORATION CHIBA UNIVERSITY, published 2020).

Columns and labels:
[1] = target: T1, Brm (human, UniProt P51531 1-1590, limits assumed); assay: binding test of DPF2 truncation mutants; format not described
T1 construct: also called hBRM

[2] = target: BRG1 (human, UniProt P51532 1-1647); assay: as above
Sequence of BRG1 (P51532 whole entry): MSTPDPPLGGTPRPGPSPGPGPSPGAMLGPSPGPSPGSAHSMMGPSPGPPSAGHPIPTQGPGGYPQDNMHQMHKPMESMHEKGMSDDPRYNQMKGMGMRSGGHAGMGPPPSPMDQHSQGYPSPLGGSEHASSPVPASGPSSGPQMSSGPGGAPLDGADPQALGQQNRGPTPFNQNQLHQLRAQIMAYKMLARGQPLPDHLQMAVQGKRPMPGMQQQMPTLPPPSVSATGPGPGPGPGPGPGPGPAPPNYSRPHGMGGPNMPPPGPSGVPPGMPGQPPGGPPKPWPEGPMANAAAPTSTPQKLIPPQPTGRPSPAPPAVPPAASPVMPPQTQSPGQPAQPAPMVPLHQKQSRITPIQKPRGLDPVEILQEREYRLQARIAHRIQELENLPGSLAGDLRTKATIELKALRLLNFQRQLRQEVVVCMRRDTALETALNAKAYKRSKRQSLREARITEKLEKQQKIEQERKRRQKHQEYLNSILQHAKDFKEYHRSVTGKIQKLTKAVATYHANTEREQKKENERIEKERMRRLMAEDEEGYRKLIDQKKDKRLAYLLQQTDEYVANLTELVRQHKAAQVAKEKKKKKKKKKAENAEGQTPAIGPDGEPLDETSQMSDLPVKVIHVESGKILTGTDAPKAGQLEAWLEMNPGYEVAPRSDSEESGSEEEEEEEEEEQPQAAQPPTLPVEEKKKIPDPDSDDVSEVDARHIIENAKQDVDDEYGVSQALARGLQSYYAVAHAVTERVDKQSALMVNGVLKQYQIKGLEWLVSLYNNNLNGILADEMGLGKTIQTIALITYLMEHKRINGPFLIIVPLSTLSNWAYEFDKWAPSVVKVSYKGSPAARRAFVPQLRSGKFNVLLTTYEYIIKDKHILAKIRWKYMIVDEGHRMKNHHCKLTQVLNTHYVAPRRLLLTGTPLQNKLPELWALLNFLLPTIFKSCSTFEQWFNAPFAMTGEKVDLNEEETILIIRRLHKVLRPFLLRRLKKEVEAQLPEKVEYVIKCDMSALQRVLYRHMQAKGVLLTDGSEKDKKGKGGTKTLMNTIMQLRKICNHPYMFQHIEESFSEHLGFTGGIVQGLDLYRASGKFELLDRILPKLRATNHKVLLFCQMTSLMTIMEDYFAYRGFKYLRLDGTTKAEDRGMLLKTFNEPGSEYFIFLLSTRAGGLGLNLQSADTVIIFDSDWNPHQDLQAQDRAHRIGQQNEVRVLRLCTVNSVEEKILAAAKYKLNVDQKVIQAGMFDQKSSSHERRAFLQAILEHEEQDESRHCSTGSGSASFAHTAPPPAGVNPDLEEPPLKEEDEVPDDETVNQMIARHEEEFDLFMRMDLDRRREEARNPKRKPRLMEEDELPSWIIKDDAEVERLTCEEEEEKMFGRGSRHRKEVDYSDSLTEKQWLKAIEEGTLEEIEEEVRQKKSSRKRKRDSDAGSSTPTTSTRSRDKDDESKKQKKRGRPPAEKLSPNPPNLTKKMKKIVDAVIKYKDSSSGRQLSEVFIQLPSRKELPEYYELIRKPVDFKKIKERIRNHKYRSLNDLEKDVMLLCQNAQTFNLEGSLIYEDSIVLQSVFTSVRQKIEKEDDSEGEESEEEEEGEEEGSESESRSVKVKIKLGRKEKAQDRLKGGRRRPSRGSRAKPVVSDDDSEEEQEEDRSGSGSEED

T1 sequence (P51531 whole entry, the tested form may be a part): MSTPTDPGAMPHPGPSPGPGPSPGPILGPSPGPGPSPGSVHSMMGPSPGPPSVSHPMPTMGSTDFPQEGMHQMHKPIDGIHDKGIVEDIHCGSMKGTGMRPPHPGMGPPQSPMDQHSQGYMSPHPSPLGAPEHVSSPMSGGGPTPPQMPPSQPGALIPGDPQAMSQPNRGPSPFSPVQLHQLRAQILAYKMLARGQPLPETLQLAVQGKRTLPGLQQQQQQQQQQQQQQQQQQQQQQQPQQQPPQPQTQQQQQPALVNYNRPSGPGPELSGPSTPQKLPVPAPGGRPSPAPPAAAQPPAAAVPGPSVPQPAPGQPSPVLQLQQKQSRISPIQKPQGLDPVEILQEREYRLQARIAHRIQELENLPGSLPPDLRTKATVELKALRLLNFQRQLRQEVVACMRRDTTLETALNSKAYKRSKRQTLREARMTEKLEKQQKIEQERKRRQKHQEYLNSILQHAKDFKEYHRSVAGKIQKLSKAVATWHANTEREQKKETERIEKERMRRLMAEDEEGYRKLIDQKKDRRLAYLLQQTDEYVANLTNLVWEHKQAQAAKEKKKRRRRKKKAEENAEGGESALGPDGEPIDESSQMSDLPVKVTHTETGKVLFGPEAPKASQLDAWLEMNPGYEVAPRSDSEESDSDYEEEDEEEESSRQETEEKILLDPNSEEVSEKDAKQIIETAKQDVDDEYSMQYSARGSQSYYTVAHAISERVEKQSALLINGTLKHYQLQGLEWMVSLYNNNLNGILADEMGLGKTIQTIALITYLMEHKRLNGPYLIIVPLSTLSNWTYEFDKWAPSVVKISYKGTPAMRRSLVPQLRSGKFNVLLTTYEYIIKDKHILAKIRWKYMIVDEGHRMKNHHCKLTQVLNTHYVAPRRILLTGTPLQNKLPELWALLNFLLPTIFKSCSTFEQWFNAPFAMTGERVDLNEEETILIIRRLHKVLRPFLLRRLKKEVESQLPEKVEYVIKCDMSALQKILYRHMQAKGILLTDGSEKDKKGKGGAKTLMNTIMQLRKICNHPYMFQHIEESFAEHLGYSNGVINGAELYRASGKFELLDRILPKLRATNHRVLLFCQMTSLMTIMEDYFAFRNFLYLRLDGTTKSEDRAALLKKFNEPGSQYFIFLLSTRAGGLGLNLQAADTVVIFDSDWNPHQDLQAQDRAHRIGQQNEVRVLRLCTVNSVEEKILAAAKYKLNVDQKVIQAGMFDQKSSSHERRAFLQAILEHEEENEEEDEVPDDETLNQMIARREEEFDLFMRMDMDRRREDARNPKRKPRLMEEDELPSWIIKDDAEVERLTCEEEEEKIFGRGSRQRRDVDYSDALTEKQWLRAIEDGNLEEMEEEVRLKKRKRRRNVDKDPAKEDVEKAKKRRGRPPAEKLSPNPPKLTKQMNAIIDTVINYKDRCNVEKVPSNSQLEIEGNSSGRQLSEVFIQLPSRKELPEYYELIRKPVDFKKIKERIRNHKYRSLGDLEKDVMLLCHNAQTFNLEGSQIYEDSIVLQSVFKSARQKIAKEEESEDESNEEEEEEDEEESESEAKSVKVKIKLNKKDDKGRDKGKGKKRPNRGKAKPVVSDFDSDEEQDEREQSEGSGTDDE

- binding result [1]: binds
- binding result [2]: binds
B1: DPF2-CT1 (CT1 peptide of DPF2, amino acid residues 1 to 84) (peptide)
peptide: MAAVVENVVKLLGEQYYKDAMEQCHNYNARLCAERSVRLPFLDSQTGVAQSNCYIWMEKRHRGPGLASGQLYSYPARRWRKKRR
notes: One of a series of truncation mutants of DPF2
